In the supplement of paper PMC10126150:
± gives the standard deviation of the averaged measurements.

System: ATP
Assay: switch fluorescence ratio, 500 uM ATP over buffer (Cy3 cluster intensity, sum of 5 cycles each) (fold (ratio)); higher = stronger signal-on switching upon ATP binding; sequences stand for … in TCGTCGGCAGCGTCAGATGTGTATAAGAGACAGTTTTTTTTTTTTTTTTTTTTTTTTT…TC
Conditions: aptamer strand: ATP DNA aptamer (quencher-CACCTGGGGGAGTATTGCGGAGGAAGG + anchor), 100 nM annealed; ATP concentration: 500 uM
Method in brief: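 After annealing to 100 nM quencher-labelled ATP aptamer, Cy3-labelled switching-strand clusters on a modified Illumina MiSeq flow-cell were imaged in selection buffer. A second image followed after 15 min with 500 uM ATP at 22 °C, and five such buffer/ATP cycles were done, each separated by NaOH stripping and re-annealing. The fluorescence ratio, averaged per switch-domain sequence, is summed target-cycle over summed buffer-cycle Cy3 intensity per cluster, with clusters outside 100-1000 RFU excluded.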
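Also: ATP exposure 15 min at 22 °C before imaging.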

TTGTGAGGGG
switch fluorescence ratio: 0.988 ± 0.022

TTGTGAGTAG
switch fluorescence ratio: 1 ± 0.028

TTGTGAGTGT
switch fluorescence ratio: 1.01 ± 0.034

TTGTGATACT
switch fluorescence ratio: 1.07 ± 0.044

TTGTGCCCGG
switch fluorescence ratio: 0.9727 ± 0.009

TTGTGCCGGT
switch fluorescence ratio: 0.988 ± 0.037

TTGTGCGTAG
switch fluorescence ratio: 0.991 ± 0.047

TTGTGCTGCC
switch fluorescence ratio: 1.05 ± 0.027

TTGTGGAAAT
switch fluorescence ratio: 1 ± 0.069

TTGTGGCAGG
switch fluorescence ratio: 1.01 ± 0.054

TTGTGGCTGT
switch fluorescence ratio: 1.01 ± 0.023

TTGTGGGGCC
switch fluorescence ratio: 1 ± 0.029

TTGTGGGGGG
switch fluorescence ratio: 0.989 ± 0.036

TTGTGGGTTA
switch fluorescence ratio: 0.96 ± 0.012

TTGTGGTCTT
switch fluorescence ratio: 0.9762 ± 0.0075

TTGTGGTGGG
switch fluorescence ratio: 1.03 ± 0.069

TTGTGGTTTG
switch fluorescence ratio: 0.992 ± 0.034

TTGTGTATGG
switch fluorescence ratio: 1.02 ± 0.052

TTGTGTCGGG
switch fluorescence ratio: 0.998 ± 0.02

TTGTGTGATT
switch fluorescence ratio: 1.02 ± 0.038

TTGTGTGGGC
switch fluorescence ratio: 1.04 ± 0.047

TTGTGTGTAA
switch fluorescence ratio: 0.995 ± 0.014

TTGTGTTAGT
switch fluorescence ratio: 0.958 ± 0.01

TTGTGTTTAT
switch fluorescence ratio: 0.965 ± 0.015

TTGTGTTTTT
switch fluorescence ratio: 0.995 ± 0.023

TTGTTAACAG
switch fluorescence ratio: 0.997 ± 0.018

TTGTTAATAT
switch fluorescence ratio: 1 ± 0.035

TTGTTAATGT
switch fluorescence ratio: 1.06 ± 0.17

TTGTTAGAA
switch fluorescence ratio: 1.0004 ± 0.001

TTGTTAGAAA
switch fluorescence ratio: 1.002 ± 0.0058

TTGTTAGATC
switch fluorescence ratio: 0.984 ± 0.036

TTGTTAGGCC
switch fluorescence ratio: 0.995 ± 0.021

TTGTTAGTTT
switch fluorescence ratio: 0.983 ± 0.032

TTGTTATACG
switch fluorescence ratio: 1.09 ± 0.079

TTGTTATGTA
switch fluorescence ratio: 0.982 ± 0.026

TTGTTATGTT
switch fluorescence ratio: 0.971 ± 0.03

TTGTTATTGG
switch fluorescence ratio: 0.978 ± 0.038

TTGTTCAAAA
switch fluorescence ratio: 1.03 ± 0.025

TTGTTCCATA
switch fluorescence ratio: 1 ± 0.033

TTGTTGAAGG
switch fluorescence ratio: 0.998 ± 0.038

TTGTTGAAGT
switch fluorescence ratio: 0.9966 ± 0.0072

TTGTTGATTT
switch fluorescence ratio: 1.02 ± 0.034

TTGTTGGGAA
switch fluorescence ratio: 0.998 ± 0.032

TTGTTGGGGG
switch fluorescence ratio: 0.994 ± 0.027

TTGTTGGTAC
switch fluorescence ratio: 1.15 ± 0.23

TTGTTGGTCC
switch fluorescence ratio: 1.16 ± 0.25

TTGTTGGTGA
switch fluorescence ratio: 0.971 ± 0.033

TTGTTGGTGC
switch fluorescence ratio: 1.09 ± 0.014

TTGTTGGTTA
switch fluorescence ratio: 0.9925 ± 0.0028

TTGTTGGTTT
switch fluorescence ratio: 1.02 ± 0.05

TTGTTGTAGC
switch fluorescence ratio: 1.02 ± 0.015

TTGTTGTATG
switch fluorescence ratio: 1.02 ± 0.014

TTGTTGTCGG
switch fluorescence ratio: 0.956 ± 0.013

TTGTTGTTAC
switch fluorescence ratio: 0.9998 ± 0.0074

TTGTTTAACT
switch fluorescence ratio: 1.02 ± 0.026

TTGTTTAGGG
switch fluorescence ratio: 0.999 ± 0.049

TTGTTTCCCG
switch fluorescence ratio: 1.013 ± 0.0086

TTGTTTGGCC
switch fluorescence ratio: 1.05 ± 0.079

TTGTTTGGCT
switch fluorescence ratio: 1.01 ± 0.015

TTGTTTGGTG
switch fluorescence ratio: 0.932 ± 0.014

TTGTTTTAAT
switch fluorescence ratio: 0.999 ± 0.02

TTGTTTTACA
switch fluorescence ratio: 0.9843 ± 0.0096

TTGTTTTGAT
switch fluorescence ratio: 0.984 ± 0.035

TTGTTTTGCA
switch fluorescence ratio: 0.971 ± 0.018

TTGTTTTTTC
switch fluorescence ratio: 0.986 ± 0.026

TTTAAAAAGC
switch fluorescence ratio: 0.996 ± 0.032

TTTAAAAAGT
switch fluorescence ratio: 1 ± 0.023

TTTAAAAATA
switch fluorescence ratio: 0.9966 ± 0.0049

TTTAAAACGC
switch fluorescence ratio: 1.01 ± 0.099

TTTAAAATTC
switch fluorescence ratio: 1.28 ± 0.49

TTTAAACGTA
switch fluorescence ratio: 0.983 ± 0.033

TTTAAAGTGT
switch fluorescence ratio: 0.997 ± 0.029

TTTAAATCTT
switch fluorescence ratio: 1.06 ± 0.022

TTTAAATGCG
switch fluorescence ratio: 0.985 ± 0.041

TTTAAATGGT
switch fluorescence ratio: 1 ± 0.027

TTTAACCGTC
switch fluorescence ratio: 1.06 ± 0.052

TTTAACGAAT
switch fluorescence ratio: 1.09 ± 0.099

TTTAACGTTT
switch fluorescence ratio: 0.979 ± 0.0061

TTTAACTCTG
switch fluorescence ratio: 1 ± 0.011

TTTAAGACAA
switch fluorescence ratio: 0.9892 ± 0.0025

TTTAAGCCGG
switch fluorescence ratio: 1.01 ± 0.032

TTTAAGGGA
switch fluorescence ratio: 0.9897 ± 0.0045

TTTAAGGGCC
switch fluorescence ratio: 0.978 ± 0.036

TTTAAGGTGA
switch fluorescence ratio: 1.04 ± 0.053

TTTAAGGTTA
switch fluorescence ratio: 0.999 ± 0.025

TTTAAGTCAG
switch fluorescence ratio: 1.018 ± 0.0088

TTTAAGTTTG
switch fluorescence ratio: 0.989 ± 0.029

TTTAATAAAA
switch fluorescence ratio: 0.988 ± 0.013

TTTAATAAGT
switch fluorescence ratio: 0.9981 ± 0.0036

TTTAATACGA
switch fluorescence ratio: 1.04 ± 0.042

TTTAATACGG
switch fluorescence ratio: 1.04 ± 0.011

TTTAATAGTT
switch fluorescence ratio: 1.03 ± 0.022

TTTAATATCT
switch fluorescence ratio: 0.998 ± 0.015

TTTAATATGC
switch fluorescence ratio: 1.14 ± 0.23

TTTAATATGT
switch fluorescence ratio: 0.968 ± 0.024

TTTAATCAAG
switch fluorescence ratio: 0.951 ± 0.021

TTTAATCACC
switch fluorescence ratio: 1.02 ± 0.02

TTTAATCTG
switch fluorescence ratio: 0.962 ± 0.021

TTTAATGCCG
switch fluorescence ratio: 0.954 ± 0.027

TTTAATGTAC
switch fluorescence ratio: 1.36 ± 0.32

TTTAATTATG
switch fluorescence ratio: 1.02 ± 0.034

TTTAATTGG
switch fluorescence ratio: 1 ± 0.048

TTTACAAGTA
switch fluorescence ratio: 1.031 ± 0.0049

TTTACACAGG
switch fluorescence ratio: 1.17 ± 0.035

TTTACAGGGT
switch fluorescence ratio: 1.03 ± 0.036

TTTACAGGTT
switch fluorescence ratio: 1.11 ± 0.1

TTTACATGCG
switch fluorescence ratio: 0.935 ± 0.031

TTTACATTGT
switch fluorescence ratio: 1.01 ± 0.03

TTTACCCCAA
switch fluorescence ratio: 1.15 ± 0.095

TTTACCGAAT
switch fluorescence ratio: 1.05 ± 0.017

TTTACCGGCG
switch fluorescence ratio: 1.02 ± 0.051

TTTACCTGGG
switch fluorescence ratio: 1.01 ± 0.032

TTTACGCGGG
switch fluorescence ratio: 1.04 ± 0.075

TTTACGGCCC
switch fluorescence ratio: 1.07 ± 0.12

TTTACGGGAA
switch fluorescence ratio: 1.05 ± 0.007

TTTACGGGTC
switch fluorescence ratio: 0.981 ± 0.026

TTTACGGGTT
switch fluorescence ratio: 0.988 ± 0.021

TTTACGTGAC
switch fluorescence ratio: 1.22 ± 0.16

TTTACGTTGC
switch fluorescence ratio: 1.34 ± 0.47

TTTACGTTTG
switch fluorescence ratio: 0.9919 ± 0.0017

TTTACTGGCA
switch fluorescence ratio: 1.05 ± 0.076

TTTACTTGTA
switch fluorescence ratio: 1.01 ± 0.023

TTTACTTTAT
switch fluorescence ratio: 1.06 ± 0.044

TTTAGAAACT
switch fluorescence ratio: 1.027 ± 0.0067

TTTAGAATAC
switch fluorescence ratio: 1.51 ± 0.42

TTTAGAGCGT
switch fluorescence ratio: 0.9933 ± 0.0013

TTTAGAGGCT
switch fluorescence ratio: 1 ± 0.012

TTTAGAGTGT
switch fluorescence ratio: 1.044 ± 0.0087

TTTAGATACG
switch fluorescence ratio: 1.05 ± 0.014

TTTAGATGGG
switch fluorescence ratio: 0.989 ± 0.029

TTTAGATTCT
switch fluorescence ratio: 0.992 ± 0.032

TTTAGCAACA
switch fluorescence ratio: 1.04 ± 0.047

TTTAGCGTGG
switch fluorescence ratio: 1.05 ± 0.05

TTTAGCT
switch fluorescence ratio: 1.08 ± 0.097

TTTAGCTGAA
switch fluorescence ratio: 0.962 ± 0.024

TTTAGGAAAG
switch fluorescence ratio: 1.05 ± 0.063

TTTAGGAAGG
switch fluorescence ratio: 1.017 ± 0.01

TTTAGGACGT
switch fluorescence ratio: 0.999 ± 0.059

TTTAGGAGTT
switch fluorescence ratio: 0.996 ± 0.019

TTTAGGCTGC
switch fluorescence ratio: 1.01 ± 0.021

TTTAGGGAGC
switch fluorescence ratio: 1.04 ± 0.029

TTTAGGGTAA
switch fluorescence ratio: 1 ± 0.03

TTTAGGGTCG
switch fluorescence ratio: 1.007 ± 0.0016

TTTAGGTAAT
switch fluorescence ratio: 1.016 ± 0.0074

TTTAGGTAT
switch fluorescence ratio: 1 ± 0.023

TTTAGGTCTA
switch fluorescence ratio: 0.978 ± 0.019

TTTAGGTTCA
switch fluorescence ratio: 0.98 ± 0.041

TTTAGGTTCT
switch fluorescence ratio: 1.01 ± 0.026

TTTAGGTTTG
switch fluorescence ratio: 1 ± 0.066

TTTAGTAATA
switch fluorescence ratio: 1.03 ± 0.021

TTTAGTACGC
switch fluorescence ratio: 1.05 ± 0.0076

TTTAGTAGCT
switch fluorescence ratio: 1 ± 0.032

TTTAGTAGGT
switch fluorescence ratio: 1.03 ± 0.023

TTTAGTAGTT
switch fluorescence ratio: 1.01 ± 0.017

TTTAGTCATG
switch fluorescence ratio: 0.977 ± 0.035

TTTAGTCGCG
switch fluorescence ratio: 0.967 ± 0.039

TTTAGTGGTT
switch fluorescence ratio: 1.02 ± 0.044

TTTAGTGTAT
switch fluorescence ratio: 0.991 ± 0.04

TTTAGTTCTG
switch fluorescence ratio: 0.9788 ± 0.0094

TTTAGTTGTG
switch fluorescence ratio: 0.967 ± 0.014

TTTATAAAGG
switch fluorescence ratio: 1.01 ± 0.034

TTTATAATCA
switch fluorescence ratio: 0.967 ± 0.011

TTTATACCAA
switch fluorescence ratio: 1.038 ± 0.0089

TTTATACGGC
switch fluorescence ratio: 1.03 ± 0.014

TTTATAGGGG
switch fluorescence ratio: 1.08 ± 0.14

TTTATATTAG
switch fluorescence ratio: 0.9889 ± 0.0075

TTTATCTAGG
switch fluorescence ratio: 1.02 ± 0.017

TTTATGAATG
switch fluorescence ratio: 0.9853 ± 0.0042

TTTATGACGT
switch fluorescence ratio: 1 ± 0.023

TTTATGAGCC
switch fluorescence ratio: 1.01 ± 0.062

TTTATGAGCG
switch fluorescence ratio: 0.973 ± 0.028

TTTATGAGGG
switch fluorescence ratio: 1.02 ± 0.047

TTTATGCCAT
switch fluorescence ratio: 0.989 ± 0.012

TTTATGGATC
switch fluorescence ratio: 1.01 ± 0.05

TTTATGGCCT
switch fluorescence ratio: 1.02 ± 0.052

TTTATGGCTG
switch fluorescence ratio: 0.987 ± 0.076

TTTATGGGG
switch fluorescence ratio: 0.965 ± 0.08

TTTATGTAAA
switch fluorescence ratio: 0.9849 ± 0.0081

TTTATGTCTC
switch fluorescence ratio: 0.992 ± 0.029

TTTATGTTCG
switch fluorescence ratio: 0.99 ± 0.02

TTTATGTTT
switch fluorescence ratio: 0.984 ± 0.019

TTTATTATTT
switch fluorescence ratio: 0.989 ± 0.024

TTTATTCCGG
switch fluorescence ratio: 1 ± 0.01

TTTATTCTGT
switch fluorescence ratio: 1 ± 0.022

TTTATTCTTA
switch fluorescence ratio: 0.9807 ± 0.0081

TTTATTGCTA
switch fluorescence ratio: 1.01 ± 0.034

TTTATTTGCC
switch fluorescence ratio: 1.05 ± 0.042

TTTATTTGG
switch fluorescence ratio: 1.09 ± 0.12

TTTATTTTTG
switch fluorescence ratio: 0.992 ± 0.029

TTTCAAAAGT
switch fluorescence ratio: 1.006 ± 0.006

TTTCAACATA
switch fluorescence ratio: 0.9987 ± 0.0035

TTTCACAAGG
switch fluorescence ratio: 0.9836 ± 0.0089

TTTCACCCCT
switch fluorescence ratio: 1.09 ± 0.067

TTTCACGAAT
switch fluorescence ratio: 0.993 ± 0.015

TTTCACGCGC
switch fluorescence ratio: 1.03 ± 0.016

TTTCAGGATG
switch fluorescence ratio: 0.963 ± 0.017

TTTCAGGGGA
switch fluorescence ratio: 1.19 ± 0.32

TTTCAGGTTT
switch fluorescence ratio: 0.983 ± 0.033

TTTCAGTCGG
switch fluorescence ratio: 1.006 ± 0.0037

TTTCAGTGCA
switch fluorescence ratio: 1.02 ± 0.029
